Paper PMC13253070

How the values were obtained:
[1] = biological target: C-terminal domain of FusB, D322N variant (Pectobacterium carotovorum LMG2410); assay: ITC; 25 °C, SEC Buffer (20 mM Hepes, 140 mM NaCl, pH 8.0), MicroCal iTC200; typically 1.1 mM injectant, 19 x 2 µl, into 85 µM protein in the cell; FusB-CTD constructs normally in the cell; mean of the titrations listed in Table S2
[2] = biological target: C-terminal domain of FusB, wild type (Pectobacterium carotovorum LMG2410); assay: as above
[3] = biological target: C-terminal domain of FusB, D322N variant (Pectobacterium carotovorum LMG2410); assay: ITC; competition, apparent: SpFer injected into the cell holding FusB-CTD (wild type or D322N) pretitrated with ~2.5 M excess of FusANTR-GFP (wild type or D53A); 25 °C, SEC Buffer
[4] = biological target: C-terminal domain of FusB (FusB-CTD), wild type (Pectobacterium carotovorum LMG2410); assay: ITC; 25 °C, SEC Buffer (20 mM Hepes, 140 mM NaCl, pH 8.0); typically 1.1 mM analyte injected 19 x 2 μl into 85 μM ligand in the cell; FusB-CTD constructs normally in the cell, SpFer and FusANTR-GFP constructs as injectants
[5] = biological target: FusB-CTD D322N (Pectobacterium carotovorum LMG2410); assay: as above
[6] = biological target: C-terminal domain of FusB (FusB-CTD), wild type (Pectobacterium carotovorum LMG2410); assay: ITC; competition, sequential titration: SpFer injected into the cell holding FusB-CTD (wild type or D322N) pretitrated with ~2.5 M excess of FusANTR-GFP (wild type or D53A); 25 °C, SEC Buffer; apparent
[7] = biological target: FusB-CTD R241K (Pectobacterium carotovorum LMG2410); assay: ITC; 25 °C, SEC Buffer (20 mM Hepes, 140 mM NaCl, pH 8.0); typically 1.1 mM analyte injected 19 x 2 μl into 85 μM ligand in the cell; FusB-CTD constructs normally in the cell, SpFer and FusANTR-GFP constructs as injectants
[8] = biological target: C-terminal domain of FusB (FusB-CTD), wild type (Pectobacterium carotovorum LMG2410); assay: SEC; FusB-CTD alone at varying load (0.2, 0.5, 0.8, 1.2, 2 mg); wild type and variants compared at 0.5 mg loaded; monomer and dimer species
[9] = biological target: C-terminal domain of FusB, R242K variant (Pectobacterium carotovorum LMG2410); assay: ITC; 25 °C, SEC Buffer (20 mM Hepes, 140 mM NaCl, pH 8.0), MicroCal iTC200; typically 1.1 mM injectant, 19 x 2 µl, into 85 µM protein in the cell; FusB-CTD constructs normally in the cell; mean of the titrations listed in Table S2
[10] = biological target: FusB-CTD R241A (Pectobacterium carotovorum LMG2410); assay: ITC; 25 °C, SEC Buffer (20 mM Hepes, 140 mM NaCl, pH 8.0); typically 1.1 mM analyte injected 19 x 2 μl into 85 μM ligand in the cell; FusB-CTD constructs normally in the cell, SpFer and FusANTR-GFP constructs as injectants

**Q.** “GFP fusion construct containing the N-terminal region (residues 21-66) of FusA, D53A variant (domain or fragment)” was tested. Which Kd [1] did it give?
**A.** 31.8 µM

**Q.** How did the Kd [2] turn out when “Spinacia oleracea (spinach) ferredoxin 1, recombinant, tag-free (from UniProt P00221 51-147) (natural protein)” was run?
**A.** 7.8 µM

**Q.** And the Kd [3]?
**A.** 17.7 µM

**Q.** Which Kd [4] does the source give for “SpFer E93A/E94A (from UniProt P00221 51-147) (natural protein)” here?
**A.** 31.3 µM

**Q.** “FusANTR-GFP D53A (from UniProt C6DG80 21-66) (domain or fragment)” was tested. Which Kd [5] did it give?
**A.** 31.8 µM

**Q.** What about the Kd [4] of the same substance?
**A.** 31.6 µM

**Q.** For SpFer F64Y (natural protein), which Kd [4] is on record?
**A.** 30.7 µM

**Q.** With “Spinacia oleracea (spinach) ferredoxin 1 with a C-terminal 6His-tag (from UniProt P00221 51-147) (natural protein)” as the substance, how does the Kd [2] read?
**A.** 18.1 µM

**Q.** How did the apparent KD with ~2.5 M excess of FusANTR-GFP [6] turn out when “Spinacia oleracea (spinach) ferredoxin 1 (SpFer), wild type, recombinant (from UniProt P00221 51-147) (natural protein)” was run?
**A.** 22.3 µM

**Q.** What about the Kd [5] of the same substance?
**A.** 7.4 µM

**Q.** What about the Kd [7] of the same substance?
**A.** 25.5 µM

**Q.** Which stoichiometry N [8] does the source give for “C-terminal domain of FusB (FusB-CTD), wild type (domain or fragment)” here?
**A.** 2

**Q.** What does the source list for “GFP fusion construct containing the N-terminal region (residues 21-66) of FusA (domain or fragment)”?
**A.** Kd [9]: 33 µM; stoichiometry N [9]: < 0.2; Kd [2]: 31.2 µM; stoichiometry N [2]: < 0.2

**Q.** Which Kd [5] does the source give for “GFP fusion construct containing the N-terminal region (residues 21-66) of FusA (FusANTR-GFP), wild type (from UniProt C6DG80 21-66) (domain or fragment)” here?
**A.** 9.4 µM

**Q.** What about the Kd [7] of the same substance?
**A.** 25.3 µM

**Q.** And the Kd [10]?
**A.** 38.8 µM
